# Source: paper PMC4010534
# Biological target: Cdc42 biosensor with the effector-binding mutations T35S and Y40C in Cdc42 (UniProt Q13153)
substance,measurement,value
guanine nucleotide dissociation inhibitor (from UniProt P52565 1-204) (natural protein),"difference in FRET/mCer ratio of the biosensor by fluorometry in HEK293 cells, GDI-bound (with excess GDI) against GDI-free",17%
